Data: article PMC8913300, “Two distinct classes of cochaperones compete for the EEVD motif in heat shock protein 70 to tune its chaperone activities” (The Journal of Biological Chemistry, 2022)

Test system: Hsp72–DnaJB4 complex
Assay: Luciferase refolding by Hsp72/DnaJB4 in the presence of TPR cochaperones
Type: biochemical
Settings: 1 μM Hsp72, 100 nM denatured luciferase, 120 nM DnaJB4; CHIP titration or 10 μM TPR protein; 1 h at 37 °C
Experimental: Experiments were performed as described ([14]). Briefly, Renilla luciferase (Promega) was denatured in 8 M GdnHCl for 2 h at room temperature. Hsp72 (1 μM) and denatured luciferase (100 nM) were diluted into a working concentration in buffer containing an ATP regenerating system (23 mM Hepes, 120 mM KAc, 1.2 mM MgAc, 15 mM DTT, 61 mM creatine phosphate, 35 units/ml creatine kinase, and 5 ng/μl bovine serum albumin, pH 7.4). A titration series of DnaJB4 was added, and the reaction was initiated with the addition of 2.5 mM ATP. For competition assays with DnaJB4, complexes of Hsp72 (1 μM), denatured luciferase (100 nM), and DnaJB4 (120 nM) were incubated with either a titration of CHIP or 10 μM of indicated TPR protein. In all cases, the assay was allowed to incubate for 1 h at 37 °C in white, 96-well flat-bottom plates (Corning 3990). Luminescence was measured using the SteadyGlo luminescence reagent (Promega), and percent refolded luciferase was calculated using a standard curve of 100 to 0 nM native luciferase.

B1: DnaJC7: TPR cochaperone that also contains a J-domain (protein, UniProt Q99615 2-494, looked up)
DnaJ homolog subfamily C …: AAAAECDVVMAATEPELLDDQEAKREAETFKEQGNAYYAKKDYNEAYNYYTKAIDMCPKNASYYGNRAATLMMLGRFREALGDAQQSVRLDDSFVRGHLREGKCHLSLGNAMAACRSFQRALELDHKNAQAQQEFKNANAVMEYEKIAETDFEKRDFRKVVFCMDRALEFAPACHRFKILKAECLAMLGRYPEAQSVASDILRMDSTNADALYVRGLCLYYEDCIEKAVQFFVQALRMAPDHEKACIACRNAKALKAKKEDGNKAFKEGNYKLAYELYTEALGIDPNNIKTNAKLYCNRGTVNSKLRKLDDAIEDCTNAVKLDDTYIKAYLRRAQCYMDTEQYEEAVRDYEKVYQTEKTKEHKQLLKNAQLELKKSKRKDYYKILGVDKNASEDEIKKAYRKRALMHHPDRHSGASAEVQKEEEKKFKEVGEAFTILSDPKKKTRYDSGQDLDEEGMNMGDFDPNNIFKAFFGGPGGFSFEASGPGNFFFQFG
effect on client (luciferase) refolding by Hsp72–DnaJB4: strongly promoted luciferase refolding
